Reference: publication PMC9747329 (ACS chemical biology, 2022)
Residues, ends and D or L forms follow the SMILES beside them. No end group written: not given here. *: point of attachment. X1 = CN(C)c1ccc2c(-c3cc(C(=O)*)ccc3C(=O)[O-])c3ccc(=[N+](C)C)cc-3oc2c1

Legend:
[1] = biological target: nLuc-PTHR1 (human parathyroid hormone receptor-1 with NanoLuc luciferase fused to the N-terminus) (human) (UniProt Q03431); assay: FRET or BRET
[2] = biological target: nLuc-ΔECD-PTHR1 (truncated PTHR1 lacking most of the extracellular domain, preceded by NanoLuc luciferase) (human) (UniProt Q03431); assay: FRET or BRET
[3] = biological target: T1, nLuc-PTHR1 (Homo sapiens, UniProt Q03431); type: binding; details: for koff / kon: HEK293
T1 sequence (Q03431 27-593): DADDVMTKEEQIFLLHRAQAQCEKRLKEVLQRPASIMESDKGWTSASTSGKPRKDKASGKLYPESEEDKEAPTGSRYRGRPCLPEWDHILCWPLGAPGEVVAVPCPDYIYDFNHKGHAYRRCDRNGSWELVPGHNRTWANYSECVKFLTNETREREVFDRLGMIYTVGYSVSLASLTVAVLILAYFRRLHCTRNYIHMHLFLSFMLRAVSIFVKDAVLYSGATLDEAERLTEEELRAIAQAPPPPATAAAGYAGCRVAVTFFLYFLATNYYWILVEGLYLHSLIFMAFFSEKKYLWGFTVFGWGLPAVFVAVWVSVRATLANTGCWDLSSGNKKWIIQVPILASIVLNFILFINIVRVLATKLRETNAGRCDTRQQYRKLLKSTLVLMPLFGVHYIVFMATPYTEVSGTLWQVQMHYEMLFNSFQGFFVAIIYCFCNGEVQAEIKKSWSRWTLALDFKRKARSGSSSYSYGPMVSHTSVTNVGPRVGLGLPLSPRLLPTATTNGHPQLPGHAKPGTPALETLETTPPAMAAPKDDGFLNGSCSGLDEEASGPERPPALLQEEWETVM

[4] = biological target: T2, WT-PTHR1 (Homo sapiens, UniProt Q03431); assay: GloSensor cAMP assay in GP2.3 cells; type: cell-based; details: for Emax: HEK293, read-out: cAMP formation %Emax
T2 sequence (Q03431 27-593): T1 sequence (Q03431 27-593)

[5] = biological target: nLuc-PTHR1 (human parathyroid hormone receptor-1 with NanoLuc luciferase fused to the N-terminus) (human) (UniProt Q03431)

Kd [1] [nM] | koff [1] [s⁻¹] | kon [1] [M⁻¹ s⁻¹] | cAMP formation (GloSensor): %Emax [5] [%] | cAMP formation (GloSensor): EC50 [5] [nM] | Compound | further results
310 | 0.024 | 77000 |  |  | M-PTH(1-14)-15K^TMR (peptide) | Kd [2]: 106 nM; koff [2]: 0.018 s⁻¹; kon [2]: 180000 M⁻¹ s⁻¹
5 |  |  |  |  | PTHrP(1-34)-His5-Ile-K35^TMR (peptide) | 
 |  |  |  |  | CC[C@H](C)[C@H](NC(=O)[C@H](CCCCNC(=O)c1ccc(C(=O)[O-])c(-c2c3ccc(=[N+](C)C)cc-3oc3cc(N(C)C)ccc23)c1)NC(=O)[C@H](C)NC(=O)[C@@H](NC(=O)[C@H](Cc1c[nH]cn1)NC(=O)[C@@H](NC(=O)[C@H](CCC(=O)O)NC(=O)[C@H](C)NC(=O)[C@@H](NC(=O)[C@H](CC(C)C)NC(=O)[C@H](Cc1c[nH]cn1)NC(=O)[C@H](Cc1c[nH]cn1)NC(=O)[C@H](CC(C)C)NC(=O)[C@H](Cc1ccccc1)NC(=O)[C@H](Cc1ccccc1)NC(=O)[C@H](CCCNC(=N)N)NC(=O)[C@H](CCCNC(=N)N)NC(=O)[C@H](CCCNC(=N)N)NC(=O)[C@H](CCSC)NC(=O)[C@H](CO)NC(=O)[C@H](CC(N)=O)NC(=O)[C@H](CC(C)C)NC(=O)[C@H](Cc1c[nH]cn1)NC(=O)[C@H](CCCCN)NC(=O)CNC(=O)[C@H](CC(C)C)NC(=O)[C@H](CC(N)=O)NC(=O)[C@H](Cc1c[nH]cn1)NC(=O)[C@H](CCSC)NC(=O)[C@H](CC(C)C)NC(=O)[C@H](CCC(N)=O)NC(=O)[C@@H](NC(=O)[C@H](CCC(=O)O)NC(=O)[C@H](CO)NC(=O)[C@@H](NC(=O)[C@@H](N)CO)C(C)C)[C@@H](C)CC)[C@@H](C)CC)[C@@H](C)CC)[C@@H](C)O)C(N)=O [PTH[1-18] PTHrP[19-36]] (H-SVSEIQLMHNLGKHLNSMRRRFFLHHLIAEIHTAK(X1)I-NH2; N-terminus assumed) | koff [3]: 0.0079 ± 0.001 s⁻¹; kon [3]: 320000 ± 70000 M⁻¹ s⁻¹; Emax [4]: 106 ± 1%
27 | 0.0094 | 340000 |  |  | PTH(3-34)K35^TMR (peptide) | 
11 | 0.0043 |  |  |  | PTH(1-34)-N33K^TMR (peptide) | 
 |  |  | 99 | 0.16 | PTHrP[1-18] PTH[19-34] hybrid, Lys35(TMR) (peptide) | 
 |  |  |  |  | PTH(3-34): N-terminally truncated analogue of PTH(1-34) (SEIQLMHNLGKHLNSMERVEWLRKKLQDVHNF-NH2; UniProt P01270 34-65, looked up, fragment) [reference compound] | agonist activity, cAMP production via the PTHR1 (in words) [4]: only minimal activity
 |  |  |  |  | PTHrP(1-36): N-terminal fragment of parathyroid hormone-related protein, literature comparator [reference compound] | KD with Ile5 relative to His5 at position 5 (fold lower) ([3]; pH 7.5, K35^TMR-labeled peptides): ~ 5 fold
 |  |  |  |  | CC[C@H](C)[C@H](NC(=O)[C@H](CCCCNC(=O)c1ccc(C(=O)[O-])c(-c2c3ccc(=[N+](C)C)cc-3oc3cc(N(C)C)ccc23)c1)NC(=O)[C@H](C)NC(=O)[C@@H](NC(=O)[C@H](Cc1c[nH]cn1)NC(=O)[C@@H](NC(=O)[C@H](CCC(=O)O)NC(=O)[C@H](C)NC(=O)[C@@H](NC(=O)[C@H](CC(C)C)NC(=O)[C@H](Cc1c[nH]cn1)NC(=O)[C@H](Cc1c[nH]cn1)NC(=O)[C@H](CC(C)C)NC(=O)[C@H](Cc1ccccc1)NC(=O)[C@H](Cc1ccccc1)NC(=O)[C@H](CCCNC(=N)N)NC(=O)[C@H](CCCNC(=N)N)NC(=O)[C@H](CCCNC(=N)N)NC(=O)[C@H](CC(C)C)NC(=O)[C@H](CC(=O)O)NC(=O)[C@H](CCC(N)=O)NC(=O)[C@@H](NC(=O)[C@H](Cc1c[nH]cn1)NC(=O)[C@H](CCCCN)NC(=O)CNC(=O)[C@H](CC(C)C)NC(=O)[C@H](CC(N)=O)NC(=O)[C@H](Cc1c[nH]cn1)NC(=O)[C@H](CCSC)NC(=O)[C@H](CC(C)C)NC(=O)[C@H](CCC(N)=O)NC(=O)[C@@H](NC(=O)[C@H](CCC(=O)O)NC(=O)[C@H](CO)NC(=O)[C@@H](NC(=O)[C@@H](N)CO)C(C)C)[C@@H](C)CC)[C@@H](C)CC)[C@@H](C)CC)[C@@H](C)CC)[C@@H](C)O)C(N)=O [PTH[1-14] PTHrP[15-36]] (H-SVSEIQLMHNLGKHIQDLRRRFFLHHLIAEIHTAK(X1)I-NH2; N-terminus assumed) | koff [3]: 0.0022 ± 0.0009 s⁻¹; kon [3]: 350000 ± 40000 M⁻¹ s⁻¹; Emax [4]: 106 ± 1%
49 | 0.029 | 590000 |  | 0.15 | PTHrP[1-12] PTH[13-34] hybrid, Lys35(TMR) (peptide) | 
6.1 | 0.0022 | 350000 | 106 | 0.89 | PTH[1-14] PTHrP[15-36] hybrid, Lys35(TMR) (peptide) | 
63 | 0.043 | 680000 | 97 | 0.39 | PTHrP[1-14] PTH[15-34] hybrid, Lys35(TMR) (peptide) | 
 |  |  |  |  | CC[C@H](C)[C@H](NC(=O)[C@H](CCCCNC(=O)c1ccc(C(=O)[O-])c(-c2c3ccc(=[N+](C)C)cc-3oc3cc(N(C)C)ccc23)c1)NC(=O)[C@H](C)NC(=O)[C@@H](NC(=O)[C@H](Cc1c[nH]cn1)NC(=O)[C@@H](NC(=O)[C@H](CCC(=O)O)NC(=O)[C@H](C)NC(=O)[C@@H](NC(=O)[C@H](CC(C)C)NC(=O)[C@H](Cc1c[nH]cn1)NC(=O)[C@H](Cc1c[nH]cn1)NC(=O)[C@H](CC(C)C)NC(=O)[C@H](Cc1ccccc1)NC(=O)[C@H](Cc1ccccc1)NC(=O)[C@H](CCCNC(=N)N)NC(=O)[C@H](CCCNC(=N)N)NC(=O)[C@H](CCCNC(=N)N)NC(=O)[C@H](CC(C)C)NC(=O)[C@H](CC(=O)O)NC(=O)[C@H](CCC(N)=O)NC(=O)[C@@H](NC(=O)[C@H](CO)NC(=O)[C@H](CCCCN)NC(=O)CNC(=O)[C@H](CC(C)C)NC(=O)[C@H](CC(N)=O)NC(=O)[C@H](Cc1c[nH]cn1)NC(=O)[C@H](CCSC)NC(=O)[C@H](CC(C)C)NC(=O)[C@H](CCC(N)=O)NC(=O)[C@@H](NC(=O)[C@H](CCC(=O)O)NC(=O)[C@H](CO)NC(=O)[C@@H](NC(=O)[C@@H](N)CO)C(C)C)[C@@H](C)CC)[C@@H](C)CC)[C@@H](C)CC)[C@@H](C)CC)[C@@H](C)O)C(N)=O [PTH[1-12] PTHrP[13-36]] (H-SVSEIQLMHNLGKSIQDLRRRFFLHHLIAEIHTAK(X1)I-NH2; N-terminus assumed) | koff [3]: 0.0035 ± 0.001 s⁻¹; kon [3]: 800000 ± 50000 M⁻¹ s⁻¹; Emax [4]: 107 ± 5%
21 | 0.0053 | 250000 |  |  | PTH(2-34)K35^TMR (peptide) | 
95 | 0.041 | 430000 | 105 | 0.48 | PTHrP[1-16] PTH[17-34] hybrid, Lys35(TMR) (peptide) | 
4.4 | 0.0035 |  | 107 | 0.55 | PTH[1-12] PTHrP[13-36] hybrid, Lys35(TMR) (peptide) | 
 |  |  |  |  | LA-PTH (long-acting PTH), unlabeled (peptide) | IC50 [1]: 4.1 nM
3.4 | 0.0017 | 530000 | 103 | 0.79 | PTH[1-16] PTHrP[17-36] hybrid, Lys35(TMR) (peptide) | 
26 | 0.0079 | 320000 | 106 | 0.99 | PTH[1-18] PTHrP[19-36] hybrid, Lys35(TMR) (peptide) | 
 |  |  |  |  | PTH(2-34): N-terminally truncated analogue of PTH(1-34) (VSEIQLMHNLGKHLNSMERVEWLRKKLQDVHNF-NH2; UniProt P01270 33-65, looked up, fragment) [reference compound] | EC50 for cAMP production relative to EC50 of PTH(1-34) (fold higher) ([4]; estimated for the D-peptide): ~ 10 fold
2.4 | 0.00056 | 230000 |  |  | LA-PTH(1-34)-35K^TMR (peptide) | Kd [2]: 72 nM; koff [2]: 0.0097 s⁻¹; kon [2]: 130000 M⁻¹ s⁻¹
104 | 0.071 | 440000 |  |  | PTH(1-34)K35^TMR, I5H variant (peptide) | 
 |  |  |  |  | AVAEIQLMHQRAKWIQDARRRAFLHKLIAEIHTA-NH2 [LA-PTH, reference compound] | difference in KD between PTH and LA-PTH ([3]; direct-binding assay, K35^TMR peptides): ~ 5 fold
